Data on six molecules can be found in patent US11879149B2, “Quantification method of ethanolamine phosphate, oxidoreductase for quantification, composition for quantification, kit for quantification and sensor for quantification” (KIKKOMAN CORPORATION, priority 2018, dated 2024).

Assay type in all cases: biochemical
Data set [1] can be described thus: Oxidase activity measurement of LcAOX, LrHP, SrAOX3925, SrAOX3926, SrEAOX (4-AA/TOOS/POD, A555). The note with it: pH 7.5; for oxidase activity of the crude enzymatic solution against EAP: crude enzyme solution, 50 mM EAP final; for oxidase activity of the crude enzymatic solution against EAP / oxidase activity against EAP after being purified: 37° C.; for oxidase activity against EAP after being purified: purified preparation. On the procedure: Oxidase activity was measured for LcAOX, LrHP, SrAOX3925, SrAOX3926, SrEAOX expressed by the methods described above. After incubating 580 μl of a reagent consisting of the composition of Table 12 at 37° C. for 5 minutes, 20 μl of a substrate solution (1500 mM EAP) was added and mixed, and the amount of change at A555 (ΔAS) per 1 minute at 37° C. was measured using the spectrophotometer (U-3900, manufactured by Hitachi High-Tech Science Corporation). Subsequently, 20 μl of ion-exchanged water was added instead of the substrate solution and mixed, and the amount of change at A555 (ΔA0) per 1 minute at 37° C. was measured.
The oxidase activity was calculated based on the following formula: Oxidase activity (U/ml)=(ΔAS−ΔA0)×600.0×df/(39.2×0.5×x)=30.6×(ΔAS−ΔA0)×df/x • 39.2: Millimolar extinction coefficient (mM^−1cm^−1) of 4-AA-TOOS Condensation dye for 555 nm-wavelength light • df: Dilution rate of enzyme solution (Quantification of EAP by LrHP)

Data set [2] is described as follows: Evaluation of substrate specificity of crude enzyme solution (PMS/DCIP, 96-well plate). To be noted: 5 mM substrate, potassium phosphate buffer pH 8.0, PMS. On the procedure: An activity measurement using 2, 6-Dichlorophenolindophenol (DCIP) was performed in a 96-well plate. […] As the substrate, taurine (manufactured by Fujifilm Wako Pure Chemical Corporation), ethanolamine phosphate (EAP, manufactured by Fujifilm Wako Pure Chemical Corporation), ethanolamine (manufactured by Tokyo Chemical Industry, Co., Ltd.), and benzylamine (manufactured by Tokyo Chemical Industry Co., Ltd.) were used.

Data set [3] can be described thus: Quantification of EAP by LrHP by electrochemical methods (chronoamperometry). The note with it: +600 mV (Ag/AgCl); 0 μM to 1400 μM and 0 μM to 170 μM EAP; FIG. 6, FIG. 7. As for the experimental part: 20 μl of 150 mM Bicine-NaOH buffer solution (pH 7.5), 15 μl of 1.5 M potassium chloride solution, and 5 μl of LrHP solution (0.14 U/ml) were applied and mixed on a SCREEN-PRINTED ELECTRODES (manufactured by DropSens, Product Number DRP-C110). A dedicated connector (DRP-CAC) was then used to connect to ALS electrochemical analyzer 814D. Chronoamperometric measurements were performed at +600 mV (Ag/AgCl). Subsequently, 2 μl of EAP solution at each concentration was added, and the current value at 100 seconds after the initiation of measurement was recorded. Similar experiments were carried out using 5 μl of ultrapure water (ion-exchanged water) instead of LrHP solution as a control experiment.

B1: LcAOX: amine oxidase derived from Lichtheimia corymbifera, GenBank ID CDH56199.1, SEQ ID NO: 15 (protein, listed as Lichtheimia corymbifera)
chain: MSSSSSATPKPHPLDPLSADEIRRAAAIIREKRGQDTSYVFNSLTLKEPAKQQMMLYLGWVNSSSQPKPVTIDREVFAVLIDRPSGLVHEMTVNLDKSAVTSWNKVEGRQPTINIFEMLEAEREILKDERVKDQCRQLGITDMSMVYADPWGVGYHEIKGKRLVQALLYARTSPDDNQYAHPLDFNPLYDLNAKKVLDIVVSKRRNSSFERPVIPMANHHFLPEHLGEDRLRKDIKPIEITQPQGVSFSIRDGHQLHWQKWDMHLSFNYREGLVINNLSYRDMDSTVRPIIYRMSLAEMVVPYANPYKPYNHKMAFDVGEYGLGNLTNSLELGCDCVGKIGYLDAVLSDLNGDPWHIPNAICIHEEDTGLLFKHSDYRTGKAHSARSRRLVISHIVTAANYDYGLYYYFYQDGTIQYEVKATGELNTQVLAEDEDAAPYGTIVAPQVDAQHHQHLFSMRIDPMLDGPNNSVAEVDVVASDLPVGHPHNSVGNSFYPVTKVFNTTDEAKTMASVERHRTWKIINESKIHPYAKQPVGFKMMAHPTPPLLPKPGSIVYERAMFASKTLWVTPHNDKQLYPGGFYCYQSEPSENLGLPQWTKETQNVRDTDIVCWLNFGITHIPRVEDFPIMPIETCGIMLKPANFFLCNPGIDIPPSTRQSTKSAYANDATCCRKNNL
For the molecule B1, in data set [1], the “oxidase activity of the crude enzymatic solution against EAP” value amounted to 1.8 U/L and the “oxidase activity against EAP after being purified” value (“oxidase activity against EAP” below) came to 0.11 U/ml.

B2: SrAOX3926: amine oxidase derived from Syncephalastrum racemosum, GenBank ID ORZ03926.1, SEQ ID NO: 30 (protein, listed as Syncephalastrum racemosum)
chain: MTVSAVIHPLDPLSPEEIRHASAIIRRERSADKTIFIFNSISLREPPKDQVLAHFGWAAGPKPAQIDRQAFVVLIDRPSGLVHEIIVSLTTSSVVSWNRKQGVQPTLHVQEMLEAEEVMLKDERVIEECRKLGIEDMSLVFADTWGVGWHKTKGKRLMQALMYMRTSPDDNQYAHPLDFTPLYDVNEQKVIDVLVAKRRNSKFERPVIPRADHQFLPEHLGEGNLRKDIKPIEIIQPEGVSFQIRGHEIDWQKWNLHIGFNYREGLVISNVSYKDMDGTVRPVFYRVSLAEMVVPYANPYEPYNHKMAFDVGEYGLGNLTNSLELGCDCVGSIFYMDGVCSDLKGDAWVIPNAICIHEEDTGLLFKHTDFRNNKAHSARSRRLVISHIVTAANYDYGLYYYFYQDGTFQYEVKATGELNTHVLAEDENPAPYGTIVAPQIDAQHHQHLFSMRIDPMVDGPTNSVAQVDVVASDLPVGHPDNAVGNAFSPITTIYANTDEAQARANGETSRYWKIINEDKIHPYTREPVGFKLMCPNTPPMLPKPGSIAYERAVFASKTVWVTPYDAEQLFPGGFYCYQSDPADRLGLPEWTKGKKDVKNKDIVLWLTFGLTHIPRVEDFPIMPVETCGFMLKPCNFFLANPGIDIPASDKHSTKSAYAHALTNGANGTGNGSTNGSSCCNKNY
B2: the “oxidase activity of the crude enzymatic solution against EAP” value in data set [1] amounted to 0.2 U/L.

B3: LaTDH: large subunit of taurine dehydrogenase from Paracoccus denitrificans, amino acid sequence SEQ ID NO: 1, expressed in E. coli (protein)
chain: MQAIEKRAGALPYDPLYDPVTARGLGPRSDYAPTYWIGTAGAPPPDDGPVTGDMDADVVVIGSGYTGLSCALHLAKMHGIKAVVLEANGVAYGCSTRNGGQAQVSSGRLKRSQWIERWGLDVARRLHAEVCEGFDLFRGLIRDHAIDCDPQDGGHYYIAHKASAMPALEKETALLRDTFGYDARMISRDELHETVARDQEAHGAMWEADGVGIHAAKLAFGYLRAARELGARVHVDSPVQGWEYRNGVHHLRTPGGTVRARRVAVATAAYAPRSLHPRLRDRLMPIMSNSIVTRVLTPAELEAVGIRKLSPLTDTRTLRHYYRLLPDNRLQIGSRAAITGRDAANPAHLDALREGMARKFPALRGIALDYSWWGWVDVSHDMMPRITGLPDLPGAFYALGYGGNGVMYSAMAGRRMAQLVAGEAVPDLPIFNNELPHEGWRTPFRRLGQWGLYKFYHYRDERR
modifications: Paracoccus denitrificans
On to B3, for which, in data set [2], the “degree of loss of blue color derived from DCIP (dehydrogenase activity), substrate benzylamine” value is on record as “did not react”; the “degree of loss of blue color derived from DCIP (dehydrogenase activity), substrate ethanolamine” value is on record as “did not react”; the “degree of loss of blue color derived from DCIP (dehydrogenase activity), substrate ethanolamine phosphate” value was “also reacted”; the “degree of loss of blue color derived from DCIP (dehydrogenase activity), substrate taurine” value is on record as “reacted most”.

B4: LrHP: hypothetical protein derived from Lichtheimia ramosa, GenBank ID CDS02610.1, SEQ ID NO: 20 (protein, listed as Lichtheimia ramosa)
chain: MSSSPIKPYPLDPLTADEIRRAAALIRETRGQDTTYVFNSLTLKEPSKQQMMSYLGWTNSPSHPKPVTIDREVFAVLIDRPSGLVHEMTVNLDKNQVTRWNKVEGRQPTVNVFEMLEAEREILKDERVKEQCRQLGINDMSMVFADPWGVGYHEIKGKRLVQALMYARTSPDDNQYAHPLDFNPLYDVNAKKVIDIIVSKRRNSSFDRPVIPMANHHFLPEHLGQDRLRKDIKPIEITQPQGVSFSIRDGHQLHWQKWDMHLSFNYREGLVINNLSYRDMDGTVRPIIYRMSLSEMVVPYANPYKPYNHKMAFDVGEYGLGNLTNSLELGCDCVGKICYLDATLSDLNGDPWQIPNAICIHEEDTGLLFKHTDYRTGKAHSARSRRLVISHIVTAANYDYGLYYYFYQDGTIQYEVKATGELNTQVLAADEDAAPYGTIVAPQVDAQHHQHLFSMRIDPMVDGPNNSVAEVDVVASDLPVGHPHNSIGNSFYPVTKVFNTTDEAKTMASIERHRSWKIINENKIHPYAKQPVGFKMMAHPTPPLLPKPGSIVYERAMFASKTLWVTPYNEEQRYPGGFYCYQSEPSENLGLPQWTKETQNVRDTDIVCWLNFGITHIPRVEDFPIMPIETCGVMLKPVNFFLGNPGIDIPPSTRQSTKSAYATEATCCRKNNL
Regarding B4, in data set [1], the “oxidase activity of the crude enzymatic solution against EAP” value stood at 5.8 U/L and the “oxidase activity against EAP” value is 0.31 U/ml. The “oxidase activity of purified LrHP solution used in the quantification reagent” value in data set [1] (final concentration of 50 mM EAP) is recorded as 0.14 U/ml (*purified LrHP solutions). Further, the “current value at 100 seconds after the initiation of measurement with increasing EAP” value in data set [3] is on record as “current value also increased”.

B5: SrEAOX: ethanolamine oxidase derived from Syncephalastrum racemosum, GenBank ID BAU20376.1, SEQ ID NO: 35 (protein, listed as Syncephalastrum racemosum)
chain: MTLPTTIHPLDPLSPEEIRHVSEIIRKQRAADETTYIFNSIALREPPKEQILAHFGWTDGPKPVQIDRQAFAVLIDRPSGLVHEIIVSITTASIVSWETKEGVQPTLHVQEMLEAEQVMLKDERVIEECRKLGIEDMSMVFADTWGVGWHKTKGKRLMQALMYMRTSPDDNQYAHPLDFTPLYDVNEQKVIDVLVAKRRNSKFERPVIPRADRQFLPEHLGEENLRKDIKPIEITQPQGVSFQIRGHEIDWQKWNLHVGFNYREGLVINNVSYKDMDGTVRPMFYRVSLAEMVVPYANPYEPYNHKMAFDVGEYGLGNLTNSLELGCDCVGSIFYMDGVCSDIKGDAWVIPNAICIHEEDTGLLFKHTDFRNNKAHSARSRRLVISHIVTAANYDYGLYYYFYQDGTFQYEVKATGELNTHVLAEDEDPAPYGTIVAPQVDAQHHQHLFSMRIDPMVDGPTNSVAQVDVVASDLPVGHPDNAVGNAFSPVTTIYADTDEARARANGETSRYWKIINETRIHPYTKEPVGFKLMCPNTPPMLPKPGSIAYERAVFASNTVWVTPYDAEQLFPGGFYCYQSDPADRLGLPEWTREKKDVKNKDIVLWLTFGLTHIPRVEDFPIMPVETCGFMLKPCNFFLANPGIDIPASDRHSSKSAYAPAVANGEYGITNGTTNGSSCCSKGH
B5: in data set [1], the “oxidase activity of the crude enzymatic solution against EAP” value is listed as 16 U/L.

B6: SrAOX3925: amine oxidase derived from Syncephalastrum racemosum, GenBank ID ORZ03925.1, SEQ ID NO: 25 (protein, listed as Syncephalastrum racemosum)
chain: MTIVSPSHPLDPLTPSEIRHVAEIVRATRSPDDKTPRDYIFSSICLKEPHKDKTLAYLQSVSEEAAALMPEREALVILIDRPSGLVHEILVSITDEKVKSAKTLKNVQPTQHVLEMIEAEKIITKDPSVIEECRKLGITDMKNVYADPWTVGYHAQFKSSKRLMQALMYMRTSPDDNQYAHPLDFVPIYDVNAQKVVEILRQETSEASKYDRPTVPLENHQFLPEHIGVENLRKDIKPIEITQPEGVSFTVRGREIEWQNWSMHVGFNYREGVIINNVSYKDKGNVRPLFYRVSVSEMVVPYAHPKEPFNHKMAFDVGEYGLGNLTNSLELGCDCLGSIYYMDGVCNNLDGEPWVIPNAICIHEEDTGLLFKHTDYRTDKAHSARSRRLVISQIVTAANYDYGLYFYFYQDGTFQYEVKATGELNTQVFAEDENPAPYGTAVAPQVVGQHHQHLFMMRIDPMLDGRLNSVAQVDVLPSEYPVGHVENPIGNAFSPITTIYSDTTEAQAHGNLESSRTWKIINESKLHPYTKEPVGYKLVSPNTPPMLPKPGSLVYERAKFATKTIWVTPYDPDQIYPAGFYCSQSPGDDSMGLPAWTKEPQSVRGRDVVVWLTFGLTHIPRVEDFPVMPVETCGWALKACNFFLGNPGIDIPAAQKGTSKRVNGACCA
For the molecule B6, in data set [1], the “oxidase activity of the crude enzymatic solution against EAP” value was 2.6 U/L and the “oxidase activity against EAP” value is 0.16 U/ml.
